The record followed here is article PMC3967050 (Genes & Development, 2014).

Square brackets hold non-standard residues; d marks the D form. Ends that are not written are not given here. Arg(Me2a) = CN(C)C(=N)NCCC[C@H](N)C(=O)O; Lys(Me3) = C[N+](C)(C)CCCC[C@H](N)C(=O)O; Arg(Me2s) = CN=C(NC)NCCC[C@H](N)C(=O)O; Arg(Me) = CNC(=N)NCCC[C@H](N)C(=O)O

For series [1], the target named is Human Spindlin1 50–262 (SPIN1_(50–262)) (human) (UniProt Q9Y657). Description: ITC. In general terms: In ITC the heat of successive injections is recorded.
Chain of Human Spindlin1 50–262 (SPIN1_(50–262)) (human) (Q9Y657 50-262): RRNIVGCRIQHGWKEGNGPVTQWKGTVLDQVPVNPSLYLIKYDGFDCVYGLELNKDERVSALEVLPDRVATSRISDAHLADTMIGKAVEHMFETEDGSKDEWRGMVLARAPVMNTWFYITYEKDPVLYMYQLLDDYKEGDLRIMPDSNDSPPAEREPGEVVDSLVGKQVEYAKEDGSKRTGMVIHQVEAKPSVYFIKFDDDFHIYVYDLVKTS
Series [2] has as its target bulky arginine mutations of residues W72, Y98, and F251. Description: ITC.
In series [3] the target is SPIN1_50–262 (Homo sapiens, UniProt Q9Y657). The series is described as follows: ITC of SPIN1_50–262 with synthetic peptides. The class given is binding. The note with it: relative to H3 K4me3–R8me2a.
Chain of SPIN1_50–262 (Q9Y657 50-262): as above
For series [4], the target named is T1, Human Spindlin1 50–262 (SPIN1_(50–262)) (human, UniProt Q9Y657 50-262). Description: ITC.
T1 sequence (Q9Y657 50-262): as above
Series [5] deals with T1, Human Spindlin1 50–262 (SPIN1_(50–262)). Description: thermo-fluor stability assay.
Series [6] has as its target SPIN1_(50–262) E142A (human, UniProt Q9Y657 50-262, E142A). Description: ITC.
Series [7] has as its target SPIN1_(50–262) D184A (human, UniProt Q9Y657 50-262, D184A). The series is described as follows: ITC.

Chain of SPIN1_(50–262) D184A (Q9Y657 50-262 D184A): as the sequence (Q9Y657 50-262) above, with D135A counted along it
Chain of SPIN1_(50–262) E142A (Q9Y657 50-262 E142A): as the sequence (Q9Y657 50-262) above, with E93A counted along it

As for H3 K4me2–R8me2a peptide, in series [1], the Kd (usually the free concentration of one partner at which half of the binding sites on the other are occupied at equilibrium, for simple one-to-one binding) turned out to be 510 nM.
On to “H3_(1–10)K4me3R8me2a peptide (from UniProt P68431 2-11)”, for which the fold drop of affinity against wild-type SPIN1(50–262) in series [2] is 10 to 40 fold.
With `C[C@H](N)C(=O)N[C@@H](CCCNC(=N)N)C(=O)N[C@H](C(=O)N[C@@H](CCCCN(C)C)C(=O)N[C@@H](CCC(N)=O)C(=O)N[C@H](C(=O)N[C@@H](C)C(=O)N[C@@H](CCCNC(=N)N(C)C)C(=O)N[C@@H](CCCCN)C(=O)N[C@@H](CO)C(=O)O)[C@@H](C)O)[C@@H](C)O` [K4me2–R8me2a], the “affinity reduction upon loss of one methyl group” value in series [3] is around 10 fold.
On to RRKKKCVRYIQG [TCF4_(458–469) peptide], for which the Kd in series [4] was 3900 nM.
For ART[Lys(Me3)]QTARKS [H3_(1–10)K4me3 peptide], in series [4], the dissociation constant (Kd) is around 147 nM. In series [5], the “reduction of Tm against H3(1–10)K4me3R8me2a” value is 4 °C.
As for ART[Lys(Me3)]QTA[Arg(Me2s)]KS [H3_(1–10)K4me3R8me2s peptide], the “reduction of Tm against H3(1–10)K4me3R8me2a” value in series [5] turned out to be 2 °C.
ART[Lys(Me3)]QTA[Arg(Me2a)]KS (peptide, UniProt P68431 2-11, looked up) [H3_(1–10)K4me3R8me2a peptide]: the “fold reduction of binding affinity against wild-type SPIN1(50–262)” value was around 3 fold in series [6] and around 90 fold in series [7]. In series [5], the “Tm of SPIN1(50–262) with the peptide” value is 63.5 °C.
Consider ART[Lys(Me3)]QTA[Arg(Me)]KS [H3_(1–10)K4me3R8me1 peptide], for which the Kd in series [4] was around 139 nM.
